From publication PMC6449974 (2019)

Biological target: Cyclophilin A (Homo sapiens, UniProt P62937)
Assay: SPR

B1: HIV-1 capsid protein CA (unassembled) (protein)
chain: not shown
Kd: ~27 µM
